According to the supplement of paper PMC9170038:

How the values were obtained:
MS2 coat protein [1] = experiment: apparent KD of MS2 coat protein, switch ON state; designed switch direction (-1 OFF switch, 1 ON switch): -1; higher = weaker reporter binding; details: FMN input: 0 or 200 uM; Eterna round: R93 (includes R88 designs)
How it was run: (§1)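 Illumina sequencing clusters were used for on-chip transcription of designed RNA switches. Titration with SNAP-549-labelled MS2 coat protein followed, in twofold steps from 0.7 or 1.5 nM to 3 µM in 100 mM Tris-HCl pH 7.5, 80 mM KCl, 4 mM MgCl2, without or with constant ligand. Apparent KD is each design's median of fits to normalised cluster binding curves.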

MS2 coat protein [2] = experiment: apparent KD of MS2 coat protein, switch OFF state (with FMN for OFF switches, without FMN for ON switches); designed switch direction (-1 OFF switch, 1 ON switch): -1; higher = weaker reporter binding; details: FMN input: 0 or 200 uM; Eterna round: R93 (includes R88 designs)
How it was run: as §1

Sequence | apparent KD of MS2 coat protein (MS2 coat protein [1]) [nM] | apparent KD of MS2 coat protein (MS2 coat protein [2]) [nM]
AGAAUACAUGAGGAUCACCCAUGUGAGGAUAUGUGAAGAAAAAGAAAAGAAAAGAAACACAGAAGGCACAAAAG [EX 1 May 17] | 29.7 | 69.3
AGCAAGUCAGGAUAUACGAACAAGACAAAAGACGAGAAGGGACAUGAGGAUCACCCAUGUAGAAGGGACAAGCA [74%, Web mod - With 5 less U's] | 61.9 | 60.8
AGCAAGUGAGGAUAUGCGAAGUCAGGACAAACACUGACGAAGCAGAAGGCACAUGAGGAUCACCCAUGUAAGCA [Mat - Exaclusion 4 - Eli mod - D60] | 28.8 | 29.8
AGCACGUCAGGAUAUACGAAAAAAAAGGGUAAAAAAAACACACAUGAGGAUCACCCAUGUAGAAGGGACAAGCA [Diamond 94] | 66.8 | 86.8
AGCUAGAGAGGAUAUACAUGGAAAAAAAAAGUCUGAUCCCUACAUGAGGAUCACCCAUGUAGAAGGCUCUGGCA [Ex2 Design 158: Sub-opt 22] | 23.5 | 13
AGCUAGCGAGGAUAUACGAACAUGUCAAAAGACGUGAAGGGACAUGAGGAUCACCCAUGUAGAAGGCGCUAGCA [JL 74% mod 5] | 41.1 | 144
AGCUAGUCAGGAUAUACAAACAUGUCAAAAGACGUGAAGGGACAUGAGGAUCACCCAUGUAGAAGGGACUAGCA [Web Mod 74% 2] | 52.2 | 217
AGCUAGUCAGGAUAUACGCAAACGAACGAAGCUGAGAAGGGACAUGAGGAUCACCCAUGUAGAAGGGACUAGCA [Diamond 32] | 25.3 | 55.6
AGCUAGUGAGGAUAUACGAACAUGUCAAAAGACGUGAAGGAACAUGAGGAUCACCCAUGUAGAAGGCACUAGCA [Mat - Exclusion 2 - JL-Eli mod - D54] | 17.2 | 14.6
AGGAAACAUGAGGAUCACCCAUGUGAGGAUAUUUGAAAGAAAAGAAAAGAAAGAAGAAGAAGAAGGCACAAGAA [Merneith] | 17.6 | 20.5
AGGGAACAUGAGGAUCACCCAUGUGAGGAUAUGCUAUGGAAAUAAAAAAUAAAACAUAGCAGAAGGCAUAAAAA [Mat - Exclusion 1 - Eli mod - D39] | 47.6 | 46.1
AGUAUCACAGGAUAUACAUAGGUGAAAAAAGUAAAUCCACUACAUGAGGAUCACCCAUGUAGAAGGGUGAUACA [Ex2 Design 177: Random 4B] | 69.9 | 62.2
AGUCCAGAAGGAUAUACAUAGGUGAAAAAAAAAAAAAAACUACAUGAGGAUCACCCAUGUAGAAGGUCUGGACA [Mod of Brourd] | 58.6 | 25.5
AGUCGGCGAGGAUAUACAUGAGGAUCACCCAUGUGAGAGAAAAAAGUGAGUUAGACAUGUAGAAGGCGCUGACA [JL Lego Mod 8] | 54 | 26.8
AGUCUGAGAGGAUAUACAUGGGAAAAAAAAGUAAGAUCCCUACAUGAGGAUCACCCAUGUAGAAGGCUCUGACA [Ex2 Design 143: Sub-opt 7] | 27.4 | 17.9
AGUUGGCGAGGAUAUACAUGAGGAUCACCCAUGUGAAAGAAAAACUCGAAAGAGAAAAGUAGAAGGCGCUGACA [Mat - Exclusion 3 - Eli mod - D93] | 16.8 | 37.6
AGUUGGCGAGGAUAUACAUGAGGAUCACCCAUGUGAGAGAAAAAAGUGAGAAAGAAAUGUAGAAGGCGCUCACA [JL Lego Mod 13] | 62.8 | 37.5

Sequence | apparent KD of MS2 coat protein (MS2 coat protein [1]) [nM] | apparent KD of MS2 coat protein (MS2 coat protein [2]) [nM]
AGUUGGCGAGGAUAUACAUGAGGAUCACCCAUGUGAGAGAAUAAAGUGAGAAAGAAAAGUAGAAGGCGCUCACA [JL Lego Mod 16] | 60.3 | 45.1
AUAAAUCGAGGAUAUACAUGAGGAUCACCCAUGUAAAAAAAAAAAAAAUCCUCAGGAAGUAGAAGGCGAAAUAA [JR_Exc003_Sub018] | 11.7 | 23.3
AUAAAUCGAGGAUAUACAUGAGGAUCACCCAUGUAAAUAAAUAAAUAAUCCUCAGGAAGUAGAAGGCGAAAUAA [JR_Exc003_Sub019] | 15.1 | 27.2
AUAAGUGCAGGAUAUACAAAAUGCUAGCGAAAGCUAGCAUAACAUGAGGAUCACCCAUGUAGAAGGGCACAAUA [Tetraloop hairpin BlockHead... 61% 1] | 23.5 | 18.4
AUAGGCCAAGGAUAUACAUGAGGAUCACCCAUGUAAAUAACUCGAUCAAAAUAAACAAGUAGAAGGUGGAAUAA [JR_Exc003_Sub204] | 25.1 | 29.4
AUAGGCCUAGGAUAUACAUGAGGAUCACCCAUGUAAACCGAUAGAUCACGGUAAACGUGUAGAAGGAGGAAUAA [JR_Exc003_Sub207] | 24.4 | 20.6
AUAGGCCUAGGAUAUACAUGAGGAUCACCCAUGUAAAUAAAUCGAUCAAAAUAAACGUGUAGAAGGAGGAAUAA [JR_Exc003_Sub205] | 33.5 | 38.3
AUCAUGUAAGGAUAUAAAAGAAAAGAAAAGAAAGAAAAGAAUUAGAAGGUACAUGAGGAUCACCCAUGUAAGAA [EteRNA is fun!] | 30.3 | 17.9
AUCAUGUUAGGAUAUAUAAGAAAAGAAAAGAAAGAAAAGAAAUAGAAGGAACAUGAGGAUCACCCAUGUAAGAA [EteRNA is fun!] | 17.5 | 23.1
AUCGAUCGAGGAUAUACAUGAGGAUCACCCAUGUAAAAAAAAAAAAAGGCCUCAGGACGUAGAAGGCGACGCAA [JR_Exc003_Sub402] | 16.3 | 22.6
AUCUACCUAGGAUAUACAUGAGGAUCACCCAUGUACAGAUACAACUAGGGAAACACACGUAGAAGGAGGUAGAU [JR_Exc003_Sub1207] | 15.6 | 37.3
AUUAUGUAAGGAUAUGUACGAACAACAAAACAAAUAACGGUACAGAAGGUACAUGAGGAUCACCCAUGUAUAAA [May 71] | 23.6 | 21.4
CAGUACUGAGGAUAUACAUGAGGAUCACCCAUGUAUUCCAGCUAGGAAACUAGCAAAUGUAGAAGGCAGUACUG [Ex3: 825] | 14 | 14.8
CCAAGACAUGAGGAUCACCCAUGUGAGGAUAUAGGUGUAUGCAAAAAAAAGUUAAAAACUAGAAGGCACAGAAA [JR_Exc001_Sub306] | 30.7 | 25
CGCAAGUCAGGAUAUUCGACAGGUAAAUCAGUGGAUCAGAAGGAGAAGGGACAUGAGGAUCACCCAUGUAUGUA [JR_Exc004_Sub407] | 49.4 | 23.1
CUCAAGUAAGGAUAUGUAAGAAAAGAAGAGAAAGAAAAGAAACAGAAGGUACAUGAGGAUCACCCAUGUAAGAA [EteRNA is fun!] | 30.4 | 28.2
CUCAAGUGAGGAUAUACGAAUAGUAAGUAAGUAUAACAGACGUAGAAGGCACAUGAGGAUCACCCAUGUAAAUA [JR_Exc004_Sub303] | 36.2 | 28
